What is called fraction unbound is the share of the substance not bound to proteins or other matrix. Broadly, the Vd is the apparent volume that relates the amount in the body to the concentration in plasma or blood. Low values mean confinement near the circulation, high ones extensive tissue distribution. As a reminder, the clearance is a measure of how efficiently the substance is removed, as volume per time. Low readings indicate inefficient removal, high ones efficient removal.

Data on 1 compound can be found in patent US12540161B2, “Linkers” (BicycleTx Limited, priority 2020, dated 2026).

Series [1] in a line: in vitro. Particulars: rat, plasma, pH 7.4.
The nature of series [2]: in vitro. Conditions: rat, plasma.
In series [3] the target is Cathepsin B (Homo sapiens, UniProt P07858). In words: Cathepsin B (CatB) cleavage assay. The class given is biochemical. Conditions: BTCs.
The conditions of series [4]: rat.
The nature of series [5]: in vitro. Particulars: human, plasma.
The nature of series [6]: Plasma stability analysis, mouse plasma. Particulars: plasma, BTCs.
The nature of series [7]: in vitro. Particulars: human, plasma, pH 7.4.
Experimental: Pooled frozen plasma was thawed in a water bath at 37° C. Plasma was centrifuged at 4000 rpm for 5 min and the clots were removed if any. The pH will be adjusted to 7.4±0.1 if required. 1 mM stock solution was prepared with DMSO. Propantheline (positive control) was prepared by making a 100 μM working solution by diluting 5 μL of the stock solution (10 mM) with 495 μL ultra pure water. 100 μM working solutions of test compounds were made up by diluting 10 μL of the stock solution (1 mM) with 90 μL DMSO. 98 μL of blank plasma was spiked with 2 μL of dosing solution (100 μM) to achieve 2 μM of the final concentration in duplicate and samples were incubated at 37° C. in a water bath. At each time point (0, 1, 2, 4, 6 and 24 hr), 400 μL of 200 ng/mL tolbutamide and labetalol in 100% MeOH was added and mixed thoroughly to precipitate proteins. Sample plates were centrifuged at 4,000 rpm for 15 min. An aliquot of supernatant (150 μL) was transferred from each well before submitting for LC-MS/MS analysis.
The % remaining test compound after incubation in plasma was calculated using following equation: Remaining=100×(PAR at appointed incubation time/PAR at T0 time)
where PAR is the peak area ratio of analyte versus internal standard (IS).
The appointed incubation time points are T0 (0 hr), Tn (n=0, 1, 2, 4, 6, 24 hr). The half-life (T½) was calculated from a log linear plot of concentration versus time.
When the % remaining value at the maximal incubation time, which was 24 hr in this study, was higher than 75%, it is considered to be within the acceptable experimental variation.
The nature of series [8]: in vitro. Particulars: cynomolgus monkey, plasma.
A short description of series [9]: in vivo. Conditions: male, CD-1, mouse, plasma, intravenous.
Series [10] is described as follows: in vivo. Conditions: rat, plasma.
Series [11] in a line: in vitro. Conditions: mouse, plasma.

For the compound `CC[C@H](C)[C@@H]([C@@H](CC(=O)N1CCC[C@H]1[C@H](OC)[C@@H](C)C(=O)N[C@H](C)[C@@H](O)c1ccccc1)OC)N(C)C(=O)[C@@H](NC(=O)[C@H](C(C)C)N(C)C(=O)OCc1ccc(NC(=O)[C@H](CCCNC(N)=O)NC(=O)[C@@H](NC(=O)Cn2cc(CCC(=O)NCCC(=O)N(C)CC(=O)N(C)CC(=O)N(C)CC(=O)N(C)CC(=O)N(C)CC(=O)N(C)CC(=O)N(C)CC(=O)N(C)CC(=O)N(C)CC(=O)N(C)CC(=O)N[C@@H](C)C(=O)N[C@H]3CN(C)Cc4cc5cc(c4)CN(C)C[C@@H](C(N)=O)NC(=O)[C@H](C(C)(C)C)NC(=O)[C@H](CC(=O)O)NC(=O)[C@H](Cc4ccc(O)cc4)NC(=O)[C@H](Cc4ccccc4)NC(=O)[C@H](CC(=O)O)NC(=O)[C@H](CCC(=O)O)NC(=O)[C@H](CSC5)NC(=O)[C@@H](C)NC(=O)[C@H](Cc4cccc5ccccc45)NC(=O)[C@H](CCC(=O)O)NC(=O)[C@H](CC(N)=O)NC(=O)[C@@H](C)NC3=O)nn2)C(C)C)cc1)C(C)C` [BCY7761, MMAE-PAB-(Cit-Val)-BCY3900, reference compound], the half-life at 2 μM was 2.37 days in [1]; 546 min in series [6] (pH 7.4, Mouse plasma t1/2 (EDTA), EDTA anticoagulant); 552 min in [6] (pH 7.4, Mouse plasma t1/2 (Herparin), heparin anticoagulant); 408 min in series [6] (pH 7.4, Mouse plasma t1/2 expt 2 (EDTA), EDTA anticoagulant, experiment 2); above 2.41 days in series [7]. The unbound share (fraction unbound) in series [2] (PPB (% Unbound), rat (Table 9)) turned out to be 0.11; in series [2] (Plasma protein binding (% Unbound) Rat), 0.106; in series [5], 0.211; in series [8] it was 0.187; in series [11], 0.173. In addition, in series [3] (0 h), the “% Parent remaining after incubation with CatB, 0 h” value is given as 100%. For the same compound, in series [3] (1 h), the “% Parent remaining after incubation with CatB, 1 h” value is 33.687%. Moreover, the “% Parent remaining after incubation with CatB, 2 h” value in series [3] (2 h) is given as 15.1%. The “% Parent remaining after incubation with CatB, 4 h” value in series [3] (4 h) is 4.93%. In addition, the “% Parent remaining after incubation with CatB, 6 h” value in series [3] (6 h) came out at 1.01%. In addition, the “% Parent remaining after incubation with CatB, 24 h” value in series [3] (24 h) stood at 0.462%. For the same compound, in series [3] (read-out: CatB t1/2 (converted)), the half-life at 40 μM was 54 min. In addition, the AUC ratio in series [4] is given as 0.00445. In addition, the C0 in series [9] was determined as 24800 ng/mL. This compound displayed a Vd in series [9] of 0.04 L/kg. In series [9], this compound yielded a clearance of 1 mL/min/kg. In addition, the half-life was 28.8 min in [9] and 29.4 min in series [10].
